Experiments:
[1] = biological target: T1, horse fibronectin coupled to CNBr-activated Sepharose 4B (horse, UniProt Q28377 32-2477, limits assumed); assay: pull-down from HEK293 conditioned medium on horse fibronectin-Sepharose 4B, nanoLC-MSMS
T1 construct: Second control column of the pull-down; also called fibronectin column; FN-column

[2] = biological target: T2, His-tagged human tenascin-C (human, UniProt P24821 23-2201); assay: SPR (Biacore 2000), tenascin-C-his on CM5 chip, SMOC1 as analyte 3-300 nM, Langmuir 1:1 model, apparent KD
T2 construct: mature; The same construct was coupled to Sepharose 4B, coupled to the CM5 chip and expressed in COS cells for co-immunoprecipitation; also called TNC; hTNC; not shown: His tag
T2 sequence (P24821 23-2201): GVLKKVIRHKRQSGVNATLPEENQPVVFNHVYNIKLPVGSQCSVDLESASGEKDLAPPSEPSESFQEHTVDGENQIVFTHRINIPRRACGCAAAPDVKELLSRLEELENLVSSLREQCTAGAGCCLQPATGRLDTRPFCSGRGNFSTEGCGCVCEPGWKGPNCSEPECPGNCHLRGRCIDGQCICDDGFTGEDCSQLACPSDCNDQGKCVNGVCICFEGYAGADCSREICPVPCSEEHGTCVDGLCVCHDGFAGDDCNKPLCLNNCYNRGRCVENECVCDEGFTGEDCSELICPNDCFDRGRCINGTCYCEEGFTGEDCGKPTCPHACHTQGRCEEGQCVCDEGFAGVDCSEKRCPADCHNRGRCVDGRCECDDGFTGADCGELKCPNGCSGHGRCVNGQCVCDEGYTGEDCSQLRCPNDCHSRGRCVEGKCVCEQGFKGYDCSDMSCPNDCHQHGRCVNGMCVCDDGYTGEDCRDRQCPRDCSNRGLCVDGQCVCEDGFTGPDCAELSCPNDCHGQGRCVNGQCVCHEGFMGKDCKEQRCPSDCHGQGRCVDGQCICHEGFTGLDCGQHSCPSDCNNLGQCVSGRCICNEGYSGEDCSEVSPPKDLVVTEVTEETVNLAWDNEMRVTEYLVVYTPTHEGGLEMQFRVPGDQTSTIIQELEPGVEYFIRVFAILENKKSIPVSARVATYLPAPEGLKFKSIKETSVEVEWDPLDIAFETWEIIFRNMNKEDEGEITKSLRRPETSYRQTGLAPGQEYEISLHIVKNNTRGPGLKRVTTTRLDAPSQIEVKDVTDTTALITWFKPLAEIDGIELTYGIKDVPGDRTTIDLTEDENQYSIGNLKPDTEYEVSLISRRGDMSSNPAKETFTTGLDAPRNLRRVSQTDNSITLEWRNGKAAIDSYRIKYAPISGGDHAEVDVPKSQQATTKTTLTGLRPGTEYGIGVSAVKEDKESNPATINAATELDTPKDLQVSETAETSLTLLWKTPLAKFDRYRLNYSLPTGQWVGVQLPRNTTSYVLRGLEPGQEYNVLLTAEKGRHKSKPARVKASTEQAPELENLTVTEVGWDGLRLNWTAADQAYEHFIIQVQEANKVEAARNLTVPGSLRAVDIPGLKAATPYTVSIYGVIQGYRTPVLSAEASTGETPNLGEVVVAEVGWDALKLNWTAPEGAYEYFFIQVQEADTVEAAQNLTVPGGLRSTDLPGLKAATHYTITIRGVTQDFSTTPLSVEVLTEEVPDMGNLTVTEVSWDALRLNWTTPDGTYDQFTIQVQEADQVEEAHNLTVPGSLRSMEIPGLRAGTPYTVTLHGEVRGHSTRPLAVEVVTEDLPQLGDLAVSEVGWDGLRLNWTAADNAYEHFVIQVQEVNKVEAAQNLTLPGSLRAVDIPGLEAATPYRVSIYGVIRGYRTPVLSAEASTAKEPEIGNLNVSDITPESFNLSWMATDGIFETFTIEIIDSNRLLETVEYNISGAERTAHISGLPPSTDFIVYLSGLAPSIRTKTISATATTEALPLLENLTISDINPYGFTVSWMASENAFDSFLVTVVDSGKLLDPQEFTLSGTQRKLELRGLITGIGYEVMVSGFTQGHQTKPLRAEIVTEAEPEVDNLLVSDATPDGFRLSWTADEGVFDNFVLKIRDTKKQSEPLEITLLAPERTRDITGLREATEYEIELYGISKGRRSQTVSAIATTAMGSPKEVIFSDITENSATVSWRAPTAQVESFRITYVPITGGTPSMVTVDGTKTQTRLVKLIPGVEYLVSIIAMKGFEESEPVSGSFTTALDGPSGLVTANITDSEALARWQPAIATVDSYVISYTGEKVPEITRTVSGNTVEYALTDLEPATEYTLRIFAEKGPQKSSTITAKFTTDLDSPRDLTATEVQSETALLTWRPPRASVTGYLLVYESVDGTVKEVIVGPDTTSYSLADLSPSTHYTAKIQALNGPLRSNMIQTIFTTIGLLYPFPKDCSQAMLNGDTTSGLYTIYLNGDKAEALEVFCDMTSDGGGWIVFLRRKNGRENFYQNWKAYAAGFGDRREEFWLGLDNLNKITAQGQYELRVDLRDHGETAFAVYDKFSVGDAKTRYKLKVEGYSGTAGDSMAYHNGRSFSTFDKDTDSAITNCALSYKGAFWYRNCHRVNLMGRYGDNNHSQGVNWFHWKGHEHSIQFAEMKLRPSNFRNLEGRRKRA
Method: Surface Plasmon Resonance Spectroscopy. Surface plasmon resonance spectroscopy was performed using a Biacore 2000 (BIAcore AB) system. Purified human tenascin-his protein was coupled in 25 mM sodium acetate pH 5 with a flow rate of 5 μl/min to a CM5 chip beforehand activated with N-hydroxysuccinimide and 1-ethyl-3-(3-dimethylaminopropyl)carbodiimide hydrochloride. Unbound reactive groups were then saturated with 1 M ethanolamine hydrochloride, pH 8.5. Experiments were carried out using increasing concentrations (3, 10, 30, 100 and 300 nM) of SMOC1 diluted in running buffer (pH 7.4, 20 mM Hepes, 150 mM NaCl, 2 mM CaCl2, 0.005% P20). The analyte was passed over the sensor chip with a constant flow rate of 25 μl/min for 240 s, and dissociation was measured over 500 s. Fittings of the data, overlay plots, and calculation of KD values were done with BIAevaluation software 4.1.
Interaction between tenascin-C and SMOC1 by Surface Plasmon Resonance Spectroscopy. In order to firmly establish binding between SMOC1 and tenascin-C, the present inventors performed Surface Plasmon Resonance Spectroscopy. Purified his-tagged tenascin-C was coupled to a CM5 chip and SMOC1 were tested as soluble analyte at increasing concentrations. Associations and dissociations of the obtained binding curves were analyzed in a Langmuir 1:1 binding model. […]

[3] = biological target: T2, His-tagged human tenascin-C; assay: pull-down on tenascin-C-Sepharose 4B, multiple reaction monitoring

T1 sequence (Q28377 32-2477 limits assumed): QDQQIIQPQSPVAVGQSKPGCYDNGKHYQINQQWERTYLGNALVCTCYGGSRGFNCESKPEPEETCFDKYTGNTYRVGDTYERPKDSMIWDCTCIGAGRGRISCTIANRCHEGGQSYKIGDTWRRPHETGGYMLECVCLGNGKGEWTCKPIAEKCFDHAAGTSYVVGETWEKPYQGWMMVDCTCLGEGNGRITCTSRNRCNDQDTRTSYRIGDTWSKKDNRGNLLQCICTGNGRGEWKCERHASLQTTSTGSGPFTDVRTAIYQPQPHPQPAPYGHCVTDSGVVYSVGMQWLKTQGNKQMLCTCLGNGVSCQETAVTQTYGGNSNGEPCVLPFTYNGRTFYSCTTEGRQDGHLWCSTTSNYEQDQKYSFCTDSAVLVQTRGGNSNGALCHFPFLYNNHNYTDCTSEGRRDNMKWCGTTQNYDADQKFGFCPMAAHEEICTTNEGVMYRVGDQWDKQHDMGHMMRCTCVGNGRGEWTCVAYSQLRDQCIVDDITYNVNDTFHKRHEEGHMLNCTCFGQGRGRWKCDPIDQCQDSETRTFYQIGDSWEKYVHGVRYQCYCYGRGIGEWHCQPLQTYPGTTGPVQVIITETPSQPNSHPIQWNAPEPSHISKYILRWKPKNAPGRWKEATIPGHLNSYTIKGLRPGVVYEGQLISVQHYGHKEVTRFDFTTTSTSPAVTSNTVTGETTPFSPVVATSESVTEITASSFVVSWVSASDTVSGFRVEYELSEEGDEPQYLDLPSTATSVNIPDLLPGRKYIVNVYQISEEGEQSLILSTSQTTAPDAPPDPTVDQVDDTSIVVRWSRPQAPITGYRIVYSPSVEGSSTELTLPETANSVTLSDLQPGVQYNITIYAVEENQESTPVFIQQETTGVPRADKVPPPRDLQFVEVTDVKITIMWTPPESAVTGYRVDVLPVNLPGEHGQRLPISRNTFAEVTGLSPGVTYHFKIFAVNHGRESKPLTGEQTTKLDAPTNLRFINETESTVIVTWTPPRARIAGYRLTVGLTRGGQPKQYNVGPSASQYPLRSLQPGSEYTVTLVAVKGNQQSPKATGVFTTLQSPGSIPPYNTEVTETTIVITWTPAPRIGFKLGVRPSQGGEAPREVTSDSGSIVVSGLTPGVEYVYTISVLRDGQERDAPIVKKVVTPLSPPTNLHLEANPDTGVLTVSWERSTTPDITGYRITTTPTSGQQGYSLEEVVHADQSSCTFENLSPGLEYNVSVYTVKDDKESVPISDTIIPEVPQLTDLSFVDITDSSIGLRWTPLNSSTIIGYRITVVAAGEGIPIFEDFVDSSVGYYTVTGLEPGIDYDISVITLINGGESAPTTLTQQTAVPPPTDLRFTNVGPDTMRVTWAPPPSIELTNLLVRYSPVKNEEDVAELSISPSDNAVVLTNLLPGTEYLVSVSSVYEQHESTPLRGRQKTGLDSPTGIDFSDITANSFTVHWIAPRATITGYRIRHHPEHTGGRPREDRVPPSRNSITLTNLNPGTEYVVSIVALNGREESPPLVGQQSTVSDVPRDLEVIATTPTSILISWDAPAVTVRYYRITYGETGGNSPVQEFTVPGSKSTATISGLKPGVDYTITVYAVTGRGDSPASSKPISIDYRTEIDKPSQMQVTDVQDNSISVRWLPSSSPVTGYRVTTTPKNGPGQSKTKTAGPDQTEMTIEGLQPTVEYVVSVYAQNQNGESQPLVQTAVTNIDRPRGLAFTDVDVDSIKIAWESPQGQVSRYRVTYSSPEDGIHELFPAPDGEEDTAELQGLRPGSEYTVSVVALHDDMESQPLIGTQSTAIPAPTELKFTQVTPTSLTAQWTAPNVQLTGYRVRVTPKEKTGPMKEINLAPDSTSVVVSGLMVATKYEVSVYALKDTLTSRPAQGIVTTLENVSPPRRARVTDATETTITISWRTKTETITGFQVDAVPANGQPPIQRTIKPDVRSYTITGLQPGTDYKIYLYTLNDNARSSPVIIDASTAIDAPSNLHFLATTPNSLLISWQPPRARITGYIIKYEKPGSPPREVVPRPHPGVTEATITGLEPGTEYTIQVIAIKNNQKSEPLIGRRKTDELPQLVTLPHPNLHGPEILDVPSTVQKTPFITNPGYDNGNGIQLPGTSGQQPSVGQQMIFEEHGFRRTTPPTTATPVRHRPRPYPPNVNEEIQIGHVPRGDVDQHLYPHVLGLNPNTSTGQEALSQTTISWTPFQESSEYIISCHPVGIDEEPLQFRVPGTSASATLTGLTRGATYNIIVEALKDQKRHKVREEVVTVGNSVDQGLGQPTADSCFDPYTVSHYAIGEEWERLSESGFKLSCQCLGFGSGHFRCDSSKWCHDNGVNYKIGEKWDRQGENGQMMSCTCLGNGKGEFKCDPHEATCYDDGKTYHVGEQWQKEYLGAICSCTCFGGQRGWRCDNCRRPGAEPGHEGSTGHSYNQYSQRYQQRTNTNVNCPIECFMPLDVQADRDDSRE

Row | Binder | MASCOT Score (fibronectin) [1] | spectrum count (fibronectin) [1] | Kd [2] | normalized enrichment (MRM), tenascin-C against control [3]
1 | Phosphoglycerate kinase 1 (enzyme, human, UniProt P00558 2-417, looked up, also called PGK1) SLSNKLTLDKLDVKGKRVVMRVDFNVPMKNNQITNNQRIKAAVPSIKFCLDNGAKSVVLMSHLGRPDGVPMPDKYSLEPVAVELKSLLGKDVLFLKDCVGPEVEKACANPAAGSVILLENLRFHVEEEGKGKDASGNKVKAEPAKIEAFRASLSKLGDVYVNDAFGTAHRAHSSMVGVNLPQKAGGFLMKKELNYFAKALESPERPFLAILGGAKVADKIQLINNMLDKVNEMIIGGGMAFTFLKVLNNMEIGTSLFDEEGAKIVKDLMSKAEKNGVKITLPVDFVTADKFDENAKTGQATVASGIPAGWMGLDCGPESSKKYAEAVTRAKQIVWNGPVGVFEWEAFARGTKALMDEVVKATSRGCITIIGGGDTATCCAKWNTEDKVSHVSTGGGASLELLEGKVLPGVDALSNI | 100 | 6 |  | 
2 | human recombinant SMOC1 (soluble analyte in surface plasmon resonance) (other, UniProt Q9H4F8 27-434, looked up, mature; also called hSMOC1; not shown: C-terminal tag: either 6 histidines alone (SMOC1-his) or myc-DDK plus 6 histidines) HRTTGPRFLISDRDPQCNLHCSRTQPKPICASDGRSYESMCEYQRAKCRDPTLGVVHRGRCKDAGQSKCRLERAQALEQAKKPQEAVFVPECGEDGSFTQVQCHTYTGYCWCVTPDGKPISGSSVQNKTPVCSGSVTDKPLSQGNSGRKDDGSKPTPTMETQPVFDGDEITAPTLWIKHLVIKDSKLNNTNIRNSEKVYSCDQERQSALEEAQQNPREGIVIPECAPGGLYKPVQCHQSTGYCWCVLVDTGRPLPGTSTRYVMPSCESDARAKTTEADDPFKDRELPGCPEGKKMEFITSLLDALTTDMVQAINSAAPTGGGRFSEPDPSHTLEERVVHWYFSQLDSNSSNDINKREMKPFKRYVKKKAKPKKCARRFTDYCDLNKDKVISLPELKGCLGVSKEGRLV |  |  | 2.2 nM | 
3 | SPARC-related modular calcium-binding protein 1 (SMOC1) from HEK293 conditioned medium (other, human, UniProt Q9H4F8 27-434, looked up, Endogenous protein pulled down from medium) HRTTGPRFLISDRDPQCNLHCSRTQPKPICASDGRSYESMCEYQRAKCRDPTLGVVHRGRCKDAGQSKCRLERAQALEQAKKPQEAVFVPECGEDGSFTQVQCHTYTGYCWCVTPDGKPISGSSVQNKTPVCSGSVTDKPLSQGNSGRKDDGSKPTPTMETQPVFDGDEITAPTLWIKHLVIKDSKLNNTNIRNSEKVYSCDQERQSALEEAQQNPREGIVIPECAPGGLYKPVQCHQSTGYCWCVLVDTGRPLPGTSTRYVMPSCESDARAKTTEADDPFKDRELPGCPEGKKMEFITSLLDALTTDMVQAINSAAPTGGGRFSEPDPSHTLEERVVHWYFSQLDSNSSNDINKREMKPFKRYVKKKAKPKKCARRFTDYCDLNKDKVISLPELKGCLGVSKEGRLV | 0 | 0 |  | 4.5 fold
4 | Nidogen-2 (other, human, UniProt Q14112 31-1375, looked up, also called NID2) LHPDELFPHGESWGDQLLQEGDDESSAVVKLANPLHFYEARFSNLYVGTNGIISTQDFPRETQYVDYDFPTDFPAIAPFLADIDTSHGRGRVLYREDTSPAVLGLAARYVRAGFPRSARFTPTHAFLATWEQVGAYEEVKRGALPSGELNTFQAVLASDGSDSYALFLYPANGLQFLGTRPKESYNVQLQLPARVGFCRGEADDLKSEGPYFSLTSTEQSVKNLYQLSNLGIPGVWAFHIGSTSPLDNVRPAAVGDLSAAHSSVPLGRSFSHATALESDYNEDNLDYYDVNEEEAEYLPGEPEEALNGHSSIDVSFQSKVDTKPLEESSTLDPHTKEGTSLGEVGGPDLKGQVEPWDERETRSPAPPEVDRDSLAPSWETPPPYPENGSIQPYPDGGPVPSEMDVPPAHPEEEIVLRSYPASGHTTPLSRGTYEVGLEDNIGSNTEVFTYNAANKETCEHNHRQCSRHAFCTDYATGFCCHCQSKFYGNGKHCLPEGAPHRVNGKVSGHLHVGHTPVHFTDVDLHAYIVGNDGRAYTAISHIPQPAAQALLPLTPIGGLFGWLFALEKPGSENGFSLAGAAFTHDMEVTFYPGEETVRITQTAEGLDPENYLSIKTNIQGQVPYVSANFTAHISPYKELYHYSDSTVTSTSSRDYSLTFGAINQTWSYRIHQNITYQVCRHAPRHPSFPTTQQLNVDRVFALYNDEERVLRFAVTNQIGPVKEDSDPTPGNPCYDGSHMCDTTARCHPGTGVDYTCECASGYQGDGRNCVDENECATGFHRCGPNSVCINLPGSYRCECRSGYEFADDRHTCILITPPANPCEDGSHTCAPAGQARCVHHGGSTFSCACLPGYAGDGHQCTDVDECSENRCHPAATCYNTPGSFSCRCQPGYYGDGFQCIPDSTSSLTPCEQQQRHAQAQYAYPGARFHIPQCDEQGNFLPLQCHGSTGFCWCVDPDGHEVPGTQTPPGSTPPHCGPSPEPTQRPPTICERWRENLLEHYGGTPRDDQYVPQCDDLGHFIPLQCHGKSDFCWCVDKDGREVQGTRSQPGTTPACIPTVAPPMVRPTPRPDVTPPSVGTFLLYTQGQQIGYLPLNGTRLQKDAAKTLLSLHGSIIVGIDYDCRERMVYWTDVAGRTISRAGLELGAEPETIVNSGLISPEGLAIDHIRRTMYWTDSVLDKIESALLDGSERKVLFYTDLVNPRAIAVDPIRGNLYWTDWNREAPKIETSSLDGENRRILINTDIGLPNGLTFDPFSKLLCWADAGTKKLECTLPDGTGRRVIQNNLKYPFSIVSYADHFYHTDWRRDGVVSVNKHSGQFTDEYLPEQRSHLYGITAVYPYCPTGRK | 0 | 0 |  | 

Reference: patent publication US20130004519A1 (published 2013)
